# Experimental data from patent US20200057058A1 (MIT, published 2020).
# Columns and labels:
# streptavidin [1] = target: T1, streptavidin (UniProt P22629 37-163, limits assumed); assay: apparent Kd (Kd,app); fluorescent binding curve, labeled SA in PBS, 0.5 h exposure; quadratic fit
# T1 construct: It was used without a stated label in the sandwich assays; also called SA
# streptavidin [2] = target: T1, streptavidin; assay: apparent Kd (Kd,app); fluorescent binding curve, labeled SA in PBS, 4 h exposure; quadratic fit
# streptavidin [3] = target: T1, streptavidin; assay: fluorescent binding curve, labeled SA in PBS, 4 h exposure
# Procedure: (§1) The binding function of rcSso7d.SA oligomer-PNIPAM thin films was measured using fluorescently-labeled monomeric streptavidin (mSA2) and fluorescently-labeled streptavidin (SA). Details for the expression, purification, and fluorescent labeling of mSA2 are provided below. Samples were prepared by serial dilution of SA or mSA2 in PBS (pH 7.4), human urine (diluted to 50% v/v in PBS, pH 7.4), or blood serum (obtained as the supernatant by centrifuging whole blood at 1500×g for 10 minutes, then diluted to 50% v/v in PBS, pH 7.4). 0.5 μL drops of solutions containing serially diluted fluorescent mSA2 and fluorescent SA samples in PBS (pH 7.4) were gently applied to the surface of each bioconjugate thin film. […] Fluorescence microscopy images were acquired at 4× magnification using a Cy5 filter set and exposure time of 5000 ms on an Olympus IX-81 inverted fluorescence microscope with an AxioCam HRC CCD camera. Fluorescent intensity was calculated using ImageJ software⁶⁷ by determining the average fluorescent signal in a rectangular area of the fluorescent image free of defects and occupying no less than half of the full sample application area.
# (§2) To evaluate how the apparent size-based diffusion properties translated to biosensing capabilities, binding curves were measured using SA and mSA2 solutions in buffer. […]
# streptavidin [4] = target: T1, streptavidin; assay: sandwich assay, SA in 50% blood serum, detection with biotin-HRP and TMB
# Procedure: (§3) Each well was submerged in 1 mL of 1% BSA in Milli-Q water, and the 12-well plate was incubated at 37° C. for 30 minutes. The wells were rinsed twice by adding 2 mL of Milli-Q water and gently shaking the well plate at 70 rpm for 5 minutes. 1 mL of streptavidin diluted in PBS, urine, or blood serum (prepared as described in the Fluorescent Assays section) containing 0.1% BSA was then added to each well, and the well plate was shaken at 70 rpm for 4 hours at room temperature. Wells were rinsed twice with 2 mL of Milli-Q water then twice with 2 mL of 0.1% BSA in Milli-Q water by shaking at 70 rpm for 5 minutes. After rinsing, wells were submerged in 1 mL of 200 ng/mL biotin-HRP in Milli-Q water containing 0.1% BSA, and the well plate was shaken at 70 rpm for 1 hour at room temperature. Wells were then rinsed with water and 0.1% BSA as described previously. 1 mL of solution from a Pierce TMB substrate kit (Thermo Fisher Scientific) was added to each well, and the well plate was shaken vigorously at 125 rpm for 15 minutes at room temperature. 1 mL of 2M H2SO4 was added to each well, and the absorbance at 450 nm was read using a Tecan Infinite M200 PRO plate reader.
# (§4) The general procedure for this proof-of-concept experiment is diagrammed in FIG. 28. Films were first exposed to SA solutions and rinsed to remove unbound analyte. Taking advantage of the strong interaction between SA and biotin, thin films were then submerged in a solution of biotinylated horseradish peroxidase (biotin-HRP). Bound SA was detected colorimetrically through the HRP-mediated oxidation of 3,3′,5,5′-tetramethylbenzidine (TMB). Attempts to perform this assay using mSA2 as the analyte were unsuccessful, even when run on an rcSso7d.SA monolayer.
# [5] = target: monomeric streptavidin variant mSA2; assay: apparent Kd (Kd,app); fluorescent binding curve, labeled mSA2 in 50% blood serum, 4 h; quadratic fit
# [6] = target: monomeric streptavidin variant mSA2; assay: apparent Kd (Kd,app); fluorescent binding curve, labeled mSA2 in PBS, 0.5 h exposure; quadratic fit
# [7] = target: monomeric streptavidin variant mSA2; assay: fluorescent binding assay, labeled mSA2 in 50% blood serum on thin film, 4 h exposure
# Procedure: as §1, with “film. Films were incubated in a sealed chamber saturated with water vapor at room temperature to prevent to prevent drying of the applied fluorescent samples.” for “film.”
# (§5) To evaluate how the apparent size-based diffusion properties translated to biosensing capabilities, binding curves were measured using SA and mSA2 solutions in buffer. Binding curves were fit with a quadratic model that is a function of three parameters: the average MFI per binding event a, the total concentration of binding sites [P]T, and the apparent dissociation constant K_{d,app} describing the binding equilibrium between analyte and binding sites within the thin film.
# [8] = target: monomeric streptavidin variant mSA2; assay: fluorescent binding curve, labeled mSA2 in PBS, 4 h exposure; quadratic fit
# Procedure: as §1, with “film. Films were incubated in a sealed chamber saturated with water vapor at room temperature to prevent to prevent drying of the applied fluorescent samples.” for “film.”
# as §5
# [9] = target: monomeric streptavidin variant mSA2; assay: apparent Kd (Kd,app); fluorescent binding curve, labeled mSA2 in 50% urine, 4 h; quadratic fit
# streptavidin [10] = target: T1, streptavidin; assay: apparent Kd (Kd,app); fluorescent binding curve, labeled SA in 50% blood serum, 4 h; quadratic fit
# streptavidin [11] = target: T1, streptavidin; assay: fluorescent binding curve, labeled SA in 50% urine, 4 h; quadratic fit
# [12] = target: monomeric streptavidin variant mSA2; assay: fluorescent binding curve, labeled mSA2 in 50% urine, 4 h; quadratic fit
# [13] = target: monomeric streptavidin variant mSA2; assay: fluorescent binding curve, labeled mSA2 in PBS, 4 h exposure
# Procedure: as §1, §2
# streptavidin [14] = target: T1, streptavidin; assay: sandwich assay: SA in 50% urine, biotin-HRP/TMB detection
# Procedure: as §3, §4
# [15] = target: monomeric streptavidin variant mSA2; assay: fluorescent binding curves, labeled mSA2 in 50% urine or 50% blood serum, 4 h
# streptavidin [16] = target: T1, streptavidin; assay: sandwich assay: SA in 50% blood serum, biotin-HRP/TMB detection
# Procedure: as §3, §4
# [17] = target: monomeric streptavidin variant mSA2; assay: apparent Kd (Kd,app); fluorescent binding curve, labeled mSA2 in PBS, 4 h exposure; quadratic fit
# Procedure: as §1, with “film. Films were incubated in a sealed chamber saturated with water vapor at room temperature to prevent to prevent drying of the applied fluorescent samples.” for “film.”
# as §5
# streptavidin [18] = target: T1, streptavidin; assay: fluorescent binding curve, labeled SA in PBS, 30 min exposure
# Procedure: as §1, §2
# streptavidin [19] = target: T1, streptavidin; assay: fluorescent binding assay, labeled SA in 50% urine on thin film, 4 h exposure
# [20] = target: monomeric streptavidin variant mSA2; assay: fluorescent binding assay, labeled mSA2 in 50% urine on thin film, 4 h exposure
# Procedure: as §1, with “film. Films were incubated in a sealed chamber saturated with water vapor at room temperature to prevent to prevent drying of the applied fluorescent samples.” for “film.”
# as §5
# streptavidin [21] = target: T1, streptavidin; assay: fluorescent binding assay, labeled SA in 50% blood serum on thin film, 4 h exposure
# streptavidin [22] = target: T1, streptavidin; assay: fluorescent binding curve, labeled SA in PBS, 4 h exposure; quadratic fit
# [23] = target: monomeric streptavidin variant mSA2; assay: fluorescent binding curve, labeled mSA2 in 50% blood serum, 4 h; quadratic fit
# streptavidin [24] = target: T1, streptavidin; assay: apparent Kd (Kd,app); fluorescent binding curve, labeled SA in 50% urine, 4 h; quadratic fit
# streptavidin [25] = target: T1, streptavidin; assay: fluorescent binding curve, labeled SA in 50% blood serum, 4 h; quadratic fit
# [26] = target: monomeric streptavidin variant mSA2; assay: fluorescent binding assay, labeled mSA2 in PBS on thin film; quadratic curve fit
# Procedure: (§6) The binding function of rcSso7d.SA oligomer-PNIPAM thin films was measured using fluorescently-labeled monomeric streptavidin (mSA2) and fluorescently-labeled streptavidin (SA). Details for the expression, purification, and fluorescent labeling of mSA2 are provided below. Samples were prepared by serial dilution of SA or mSA2 in PBS (pH 7.4), human urine (diluted to 50% v/v in PBS, pH 7.4), or blood serum (obtained as the supernatant by centrifuging whole blood at 1500×g for 10 minutes, then diluted to 50% v/v in PBS, pH 7.4). 0.5 μL drops of solutions containing serially diluted fluorescent mSA2 and fluorescent SA samples in PBS (pH 7.4) were gently applied to the surface of each bioconjugate thin film. Films were incubated in a sealed chamber saturated with water vapor at room temperature to prevent to prevent drying of the applied fluorescent samples. After 1 hour, films were thoroughly rinsed with water for 10 seconds (a time determined to be sufficient to remove unbound molecules from the film, see FIG. 33, dried under filtered airflow, and immediately analyzed for fluorescent signal. Fluorescence microscopy images were acquired at 4× magnification using a Cy5 filter set and exposure time of 5000 ms on an Olympus IX-81 inverted fluorescence microscope with an AxioCam HRC CCD camera. Fluorescent intensity was calculated using ImageJ software⁶⁷ by determining the average fluorescent signal in a rectangular area of the fluorescent image free of defects and occupying no less than half of the full sample application area.
# Binding assays were performed by adding serially diluted solutions of fluorescently-labeled mSA2 to thin films of each studied conjugate (FIG. 6A). To maintain consistent transport properties between samples, each oligomer was conjugated to the same previously-synthesized 25 kDa PNIPAM sample. Analyte bound to thin films was quantified using fluorescence microscopy, and binding curves were fit to the collected mean fluorescent intensity (MFI) data using the following equation: […]
# [27] = target: monomeric streptavidin variant mSA2; assay: fluorescent binding assay, labeled mSA2 on thin film
# Procedure: as §6, with “Films were incubated in a sealed chamber saturated with water vapor at room temperature to prevent to prevent drying of the applied fluorescent samples.” left out, “area. […]” for “area.”
# [28] = target: monomeric streptavidin variant mSA2; assay: fluorescent binding assay, labeled mSA2; signal three standard deviations above blank
# Procedure: as §6
# Oligomerization of rcSso7d.SA also brings about a decrease in biosensor limit of detection (LOD). […] While all thin films display improvements up to threefold in LOD over the monolayer, the trend in LOD with respect to degree of oligomerization is non-monotonic. The primary factor that is expected to affect LOD in the studied biosensors is number of binding sites, as more binding sites enable a greater number of analyte molecules to be captured and shifts analyte-receptor equilibrium in favor of binding events.
# [29] = target: monomeric streptavidin variant mSA2; assay: calculated from [P]T of the mSA2 binding curve fit and film thickness; design: Calculated Density (density of binding sites within a cross-sectional area of the film): unit not given here
# Procedure: To determine the density of binding proteins within a single plane of each thin film, the concentration of accessible binding sites throughout the entire film—taken directly from the binding assay curve fits (Table 4)—was multiplied by the corresponding film thickness. When accounting for differences in film thickness, the density of oligomerized rcSso7d.SA proteins capable of binding mSA2 is found to increase […] with degree of oligomerization (Table 5). This calculated density decreases, though, between the 1×SP25k and 2×SP25k thin films, indicating a lower density of accessible binding sites in the protein domains of the oligomerized rcSso7d.SA conjugate film. The total number of predicted binding sites within each thin film assuming complete accessibility should be proportional to the […] of rcSso7d. SA in the conjugate with PNIPAM. Reasonable estimates for relative values of the predicted number of sites can thus be obtained by normalizing the weight fraction of rcSso7d. SA in each conjugate by the corresponding weight fraction in 1×SP25k. Comparing these predicted relative number of binding sites to the calculated values (FIG. 6C), all oligomeric rcSso7d.SA conjugates are found to contain fewer proteins capable of binding mSA2 than predicted. It is likely that this effect results from a combination of steric blocking of binding sites by bound mSA2 molecules as well as a lack of the free volume required to incorporate mSA2 molecules into the protein nanodomains at high degrees of binding. Despite the lower than expected binding capacity of the conjugate thin films, these biosensors contain approximately […] the quantity of accessible binding sites compared to rcSso7d.SA monolayers on a volumetric basis (Table 4). Recognizing that each plane (and a monolayer) of rcSso7d.SA proteins is roughly 1-2 nm thick,⁸⁰ the studied thin films can be determined to contain approximately 100 more planes of protein than a monolayer.
# T1 sequence (P22629 37-163 limits assumed): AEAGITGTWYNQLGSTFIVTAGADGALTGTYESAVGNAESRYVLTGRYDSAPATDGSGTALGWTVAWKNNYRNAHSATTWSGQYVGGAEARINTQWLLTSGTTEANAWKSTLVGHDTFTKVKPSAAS
binder,measurement,setting,value
"3xSP9.6k thin film (3x rcSso7d.SA-PNIPAM conjugate, PNIPAM Mn 9.6 kDa) (designed binder, maleimide end-functionalized PNIPAM (Mn 9.6 kDa) on the N-terminal Cys; film lightly crosslinked with glutaraldehyde) MGSSHHHHHHSSGLVPRGSHMCATVKFTYQGEEKQVDISKIKIVARDGQYIDFKYDEGGGAYGYGWVSEKDAPKELLQMLEKQGGGGSGGGGSMATVKFTYQGEEKQVDISKIKIVARDGQYIDFKYDEGGGAYGYGWVSEKDAPKELLQMLEKQGGGGSGGGGSMATVKFTYQGEEKQVDISKIKIVARDGQYIDFKYDEGGGAYGYGWVSEKDAPKELLQMLEKQGG",Kd,streptavidin [1],60 µM
same,Kd,streptavidin [2],40 µM
same,sensitivity relative to rcSso7d.SA monolayer,streptavidin [3],~2 fold
same,LOD relative to rcSso7d.SA monolayer,streptavidin [4],2 fold
same,Kd,[5],12.2 µM
same,Kd,[6],11 µM
same,Limit of Detection,[7],10.5 nM
same,[P]T (total concentration of binding sites),[8],0.7 nM
same,Kd,[9],26 µM
same,Kd,streptavidin [10],50 µM
same,[P]T (total concentration of binding sites),streptavidin [11],0.26 nM
same,[P]T (total concentration of binding sites),[12],17 nM
same,reduction in LOD relative to rcSso7d.SA monolayer,[13],10 fold
same,LOD,streptavidin [14],39 nM
same,LOD relative to rcSso7d.SA monolayer,[15],2 orders of magnitude lower
same,LOD,streptavidin [16],87 nM
same,Kd,[17],3.7 µM
same,sensitivity relative to rcSso7d.SA monolayer,streptavidin [18],> 10 fold
same,Limit of Detection,streptavidin [19],1300 nM
same,Limit of Detection,[20],9.8 nM
same,Limit of Detection,streptavidin [21],1700 nM
same,[P]T (total concentration of binding sites),streptavidin [22],0.9 nM
same,[P]T (total concentration of binding sites),[23],9.4 nM
same,Kd,streptavidin [24],30 µM
same,[P]T (total concentration of binding sites),streptavidin [25],0.27 nM
"3xSP25k thin film (3x rcSso7d.SA-PNIPAM conjugate, PNIPAM Mn 24.9 kDa) (designed binder, maleimide end-functionalized PNIPAM (Mn 24.9 kDa) on the N-terminal Cys; film lightly crosslinked with glutaraldehyde, Three rcSso7d.SA repeats joined by (G4S)2 linkers in one chain; also called conjugate of the trimer) MGSSHHHHHHSSGLVPRGSHMCATVKFTYQGEEKQVDISKIKIVARDGQYIDFKYDEGGGAYGYGWVSEKDAPKELLQMLEKQGGGGSGGGGSMATVKFTYQGEEKQVDISKIKIVARDGQYIDFKYDEGGGAYGYGWVSEKDAPKELLQMLEKQGGGGSGGGGSMATVKFTYQGEEKQVDISKIKIVARDGQYIDFKYDEGGGAYGYGWVSEKDAPKELLQMLEKQGG",[P]T (total concentration of accessible binding sites),[26],3.9 µM
same,fluorescent signal relative to rcSso7d.SA monolayer,[27],> 10 fold
same,limit of detection (LOD),[28],110 nM
same,Calculated Density (density of binding sites within a cross-sectional area of the film),[29],59
same,Calculated Ratio (film thickness x [P]T relative to the 1xSP25k thin film),[29],1.24
